The values that follow come from patent US20230235004A1 (published 2023).

T1: human MAdCAM expressed on cells (human, UniProt Q13477 19-382)
T1 construct: whole, on cells
T1 sequence (looked up): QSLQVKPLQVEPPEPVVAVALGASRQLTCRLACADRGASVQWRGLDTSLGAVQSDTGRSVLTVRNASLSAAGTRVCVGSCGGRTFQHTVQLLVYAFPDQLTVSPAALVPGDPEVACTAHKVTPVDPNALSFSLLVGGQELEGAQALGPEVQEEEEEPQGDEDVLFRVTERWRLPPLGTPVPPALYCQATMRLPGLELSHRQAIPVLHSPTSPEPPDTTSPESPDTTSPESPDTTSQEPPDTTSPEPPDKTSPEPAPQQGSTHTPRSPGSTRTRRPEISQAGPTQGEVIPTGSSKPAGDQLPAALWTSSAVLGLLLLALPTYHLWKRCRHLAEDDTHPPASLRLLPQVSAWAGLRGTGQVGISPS

T2: mouse MAdCAM expressed on cells (mouse, UniProt Q61826 22-405)
T2 construct: whole, on cells
T2 sequence (looked up): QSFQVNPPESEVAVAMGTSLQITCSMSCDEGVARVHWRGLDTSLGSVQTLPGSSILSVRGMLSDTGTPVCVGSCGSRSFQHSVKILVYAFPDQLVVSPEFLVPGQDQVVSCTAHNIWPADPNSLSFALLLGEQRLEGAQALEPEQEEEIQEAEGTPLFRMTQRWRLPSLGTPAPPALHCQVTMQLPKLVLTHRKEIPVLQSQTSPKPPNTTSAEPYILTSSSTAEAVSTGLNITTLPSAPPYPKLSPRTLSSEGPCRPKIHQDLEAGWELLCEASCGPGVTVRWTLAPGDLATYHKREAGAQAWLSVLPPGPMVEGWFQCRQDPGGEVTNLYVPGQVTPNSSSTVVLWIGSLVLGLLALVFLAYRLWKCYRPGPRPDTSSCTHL

B1: MAdCAM Antibody Table 2 clone 18 (antibody, V domains shown)
VH: QVQLVQSGAEVKKPGSSVKVSCKASGYTFTNYYMHWVRQAPGQGLEWMGGIIPIVDRVKYAQKFQGRVTITADESTSTAYMELSSLRSEDTAVYYCAKGRYTVNYYYGMDVWGQGTTVTVSS
VL: DIQMTQSPSSLSASVGDRVTITCQANQDISNYLNWYQQKPGKAPKLLIYRASKLEAGVPSRFSGSGSGTDFTLTISSLQPEDFATYYCQQSSEIPYSFGQGTKLEIK
notes: IgG format
B2: MAdCAM Antibody Table 2 clone 21 (antibody, V domains shown)
VH: EVQLVESGGGLVKPGGSLRLSCAASGFTFSSYWMSWVRQAPGKGLEWVSYISGDSGYTNYAAPVKGRFTISRDDSKNTLYLQMNSLKTEDTAVYYCARANSSGWYDWYFDLWGRGTLVTVSS
VL: not shown
notes: IgG format
B3: MAdCAM Antibody Table 2 clone 1 (antibody, V domains shown)
VH: EVQLLESGGGLVQPGGSLRLSCAASGFTFSSYGMHWVRQAPGKGLEWVAVISDDGSDKYYADSVKGRFTISRDNSKNTLYLQMNSLRAEDTAVYYCTTSKYYYYYGMDVWGQGTTVTVSS
VL: DIQMTQSPSSLSASVGDRVTITCQASQDISKSLNWYQQKPGKAPKLLIYAASSLQSGVPSRFSGSGSGTDFTLTISSLQPEDFATYYCQQGYSTPLTFGGGTKVEIK
notes: IgG format
B4: MAdCAM Antibody Table 2 clone 12 (antibody, V domains shown)
VH: QVQLVQSGAEVKKPGASVKVSCKASGYTLTTWYMYWVRQAPGQGLEWMGWINPNRGATNYAQKFQGRVTMTRDTSTSTVYMELSSLRSEDTAVYYCAKGDLWGAMDVWGQGTLVTVSS
VL: B3 VL with Q24R, Q27D, D28N, S30G, K31S, S32W, N34A, L96P, G100Q
notes: IgG format
B5: MAdCAM Antibody Table 2 clone 25 (antibody, V domains shown)
VH: EVQLLESGGGLVQPGGSLRLSCAASGFTFSNAWMSWVRQAPGKGLEWVSTIVGNGGATYYADSVKGRFTISRDNSKNTLYLQMNSLRAEDTAVYYCARDNPLRWQGMDVWGQGTLVTVSS
VL: B3 VL with Q24R, K31N, S32Y, G91S, T94I, L96P, G100P, E105D
notes: IgG format
B6: MAdCAM Antibody Table 2 clone 16 (antibody, V domains shown)
VH: EVQLLESGGGLVQPGGSLRLSCAASGFTFDDYAMHWVRQAPGKGLEWVSYIDASGTTIYYADSVKGRFTISRDNSKNTLYLQMNSLRAEDTAVYYCAKDQAAAGYWYFDLWGRGTLVTVSS
VL: B1 VL with N26S, R50K, K53T, A56S, S92Y, E93S, I94T, Y96I, S97T, K103R
notes: IgG format
B7: MAdCAM Antibody Table 2 clone 10 (antibody, V domains shown)
VH: EVQLLESGGGLVQPGGSLRLSCAASGFMFGDYAMHWVRQAPGKGLEWVSAISGSGGSTYYADSVKGRFTISRDNSKNTLYLQMNSLRAEDTAVYYCAKDLVVAGIWYFDLWGRGTLVTVSS
VL: DIQMTQSPSSLSASVGDRVTITCRASQGISNNLNWYQQKPGKAPKLLIYDASSLESGVPSRFSGSGSGTDFTLTISSLQPEDFATYYCQQTHSFPSTFGQGTKLEIK
notes: IgG format
B8: MAdCAM Antibody Table 2 clone 19 (antibody, V domains shown)
VH: EVQLLESGGGLVQPGGSLRLSCAASGFTFEDYAMHWVRQAPGKGLEWVSYLNSDGGSTSYADSVKGRFTISRDNSKNTLYLQMNSLRAEDTAVYYCAKDYCTNGVCAFDYWGQGTLVTVSS
VL: DIQMTQSPSSLSASVGDRVTITCRASQSISTYLNWYQQKPGKAPKLLIYDASNLETGVPSRFSGSGSGTDFTLTISSLQPEDFATYYCQQSYTIPITFGQGTRLEIK
notes: IgG format
B9: MAdCAM Antibody Table 2 clone 13 (antibody, V domains shown)
VH: QVQLVQSGAEVKKPGASVKVSCKASGYTFTTYYMHWVRQAPGQGLEWMGGFDPEDGETIYAQKFQGRVTMTRDTSTSTVYMELSSLRSEDTAVYYCARHAVAGAVGAGYYYYGMDVWGQGTMVTVSS
VL: DIQMTQSPSSLSASVGDRVTITCRASESISNWLAWYQQKPGKAPKLLIYAASTLQSGVPSRFSGSGSGTDFTLTISSLQPEDFATYYCQQSYSVPFTFGPGTKVDIK
notes: IgG format
B10: MAdCAM Antibody Table 2 clone 15 (antibody, V domains shown)
VH: QVQLVQSGAEVKKPGASVKVSCKASGYTFTGYYMHWVRQAPGQGLEWMGWIGPNSGDTNYAQKFQGRVTMTRDTSTSTVYMELSSLRSEDTAVYYCARDLDHNWYFDLWGRGTLVTVSS
VL: DIVMTQSPLSLPVTPGEPASISCRSSQSLLHSNGYNYLDWYLQKPGQSPQLLIYSSSNRAPGVPDRFSGSGSGTDFTLKISRVEAEDVGVYYCMQALHIPLTFGGGTKVEIK
notes: IgG format
B11: MAdCAM Antibody Table 2 clone 45 (antibody, V domains shown)
VH: EVQLVESGGGLVKPGGSLRLSCAASGFTFGDYAMSWVRQAPGKGLEWVSYISGDIGYTNYAAPVKGRFTISRDDSKNTLYLQMNSLKTEDTAVYYCARDVAATGNWYFDLWGRGTLVTVSS
VL: not shown
notes: IgG format
B12: MAdCAM Antibody Table 2 clone 32 (antibody, V domains shown)
VH: B4 VH
VL: B3 VL with Q24R, Q27D, D28N, S30G, K31S, S32W, N34A, L96P, G100Q
notes: IgG format
B13: MAdCAM Antibody Table 2 clone 40 (antibody, V domains shown)
VH: B4 VH
VL: B3 VL with Q24R, Q27D, D28N, S30G, K31S, S32W, N34A, L96P, G100Q
notes: IgG format
B14: MAdCAM Antibody Table 2 clone 33 (antibody, V domains shown)
VH: B4 VH with L113T
VL: B3 VL with Q24R, Q27D, D28N, S30G, K31S, S32W, N34A, L96P, G100Q
notes: IgG format
B15: MAdCAM Antibody Table 2 clone 35 (antibody, V domains shown)
VH: QVQLVQSGAEVKKPGASVKVSCKASGYTFTGYYIHWVRQAPGQGLEWMGWMNPNSGNTGYAQKFQGRVTMTRDTSTSTVYMELSSLRSEDTAVYYCARDPGFLGYSSGGSSYDGWFDPWGQGTLVTVSS
VL: B8 VL with T31S, N34H, D50A, N53S, E55Q, T56S, I94A, I96Y, R103K
notes: IgG format
B16: MAdCAM Antibody Table 2 clone 9 (antibody, V domains shown)
VH: QVQLVQSGAEVKKPGASVKVSCKASGYTFTSYYMHWVRQAPGQGLEWMGIINHSGGSTSYAQKFQGRVTMTRDTSTSTVYMELSSLRSEDTAVYYCARPYSGWYFAFDIWGQGTLVTVSS
VL: not shown
notes: IgG format
B17: MAdCAM Antibody Table 2 clone 52 (antibody, V domains shown)
VH: EVQLLESGGGLVQPGGSLRLSCAASGFTFDDYGMSWVRQAPGKGLEWVSYISSSSSYIYYADSVKGRFTISRDNSKNTLYLQMNSLRAEDTAVYYCAREIAAAGFYGMDVWGQGTTVTVSS
VL: not shown
notes: IgG format

Where a chain is given by its changes, count along the chain named.

The target in one assay is T1, human MAdCAM expressed on cells. Put plainly: cell binding.
For B1, the binding result was “binds”.
On the same count and under the same terms, under B2 stands “binds”; under B3, “binds”.
Regarding B4, the binding result is recorded as “binds”.
Take B5: the binding result is reported as “binds”.
For B6, the binding result is “binds”.
Consider B7, for which the binding result is listed as “binds”.
Take B8: the binding result is “binds”.
Turning to B9, the binding result is “binds”.
The same measure, in the same setting: the result for B10 reads “binds”.

The target of a further assay is T2, mouse MAdCAM expressed on cells. Put plainly: cell binding.
For B11, the binding result is given as “no binding”.
For B1, the binding result is on record as “no binding”.
For B2, the binding result is on record as “no binding”.
In the case of B3, the binding result is given as “binds”.
Regarding B4, the binding result is given as “no binding”.
In the case of B5, the binding result is given as “no binding”.
Take B12: the binding result is “no binding”.
For the molecule B13, the binding result is given as “no binding”.
For the molecule B6, the binding result is on record as “no binding”.
For B14, the binding result was “no binding”.
The same measure, in the same setting: the result for B7 reads “binds”; that for B8, “no binding”.
Turning to B15, the binding result is “no binding”.
For the molecule B16, the binding result is “no binding”.
B17: the binding result was “no binding”.
As to B9, the binding result is given as “no binding”.
Regarding B10, the binding result is given as “no binding”.
